Source: US11866472B2, “Peptide for treating retinitis pigmentosa” (DAIICHI SANKYO COMPANY, LIMITED, priority 2018, dated 2024)
Numbering of substitutions follows the chain as printed. In names and notes the source's numbering stands. Values belong to the molecule of their own block, whether it stands above or below them.

Assays:
[1] = tested on: human umbilical vein endothelial cells (HUVEC); assay: HUVEC migration test; type: cell-based; settings: 300 nM in EGM growth medium; 2 hours
Method: HUVEC (Kurabo Industries Ltd.) was cultured for 18 hours under conditions of 37° C. and 5% CO2 in a medium (0.1% BSA-containing serum-free EGM) in which EBM™-2 basal medium (Lonza Walkersville, Inc.) containing 0.1% BSA was supplemented with an EGM™-2 SingleQuots™ additive factor set except for serum and VEGF. Then, the cells were adjusted to 4×10^5 cells/mL with 0.1% BSA-containing serum-free EGM. 4×10^5 cells/mL of the HUVEC suspension was added at 50 μL/well to the upper layer of a chamber of a Corning FluoroBlok HTS 96 Well Multiwell Permeable Support System with a […] High Density PET Membrane (Corning Inc.) having a gelatin-coated membrane. Then, each sample described below (medium 1, 2 or 3) was added at 210 μL/well to the lower layer of the chamber (n=3). […]
A FluoroBlok HTS 96 Well Multiwell Support System supplemented with the cells and the sample was incubated for 2 hours under conditions of 37° C. and 5% CO2. […] The fluorescence intensity (excitation wavelength/fluorescence wavelength: 485 nm/535 nm) of each well was measured using a plate reader (ARVO-MX, PerkinElmer, Inc.), and the migrated cells were counted for each well according to the following expression. Migrated cells=Mean fluorescence intensity of wells containing HUVEC (n=3)—Mean fluorescence intensity of blank wells (n=3).

[2] = tested on: rat model of retinal damage induced by light exposure; assay: Retinal protective effect in rat model of retinal damage induced by light exposure; type: in vivo
Method: Rat models of retinal damage induced by light exposure are models that induce the cell death of retinal photoreceptor cells by light exposure and are universally used as model animals of retinal degeneration (Daniel T. Organisciak et al., (1996) Invest Ophthalmol Vis Sci. Vol. 37 (No. 11): p. 2243-2257). A 0.5% (W/V) tropicamide-0.5% phenylephrine hydrochloride ophthalmic solution was ocularly instilled under adaptation to darkness to rats adapted to darkness for 72 hours. Then, the rats were exposed to white light of 5500 Lux for 3 hours. The rats thus exposed were adapted again to darkness for about 24 hours and then raised for 2 days under light-dark conditions of ordinary raising. After euthanasia, the eyeballs were excised and fixed by dipping in a 3.7% (W/V) formaldehyde-0.5 to 1% (W/V) methanol-0.2% (W/V) picric acid fixative for 24 hours or longer. After paraffin embedding, thin sliced sections were prepared. The sections were stained with hematoxylin-eosin, and a nucleus count in an outer nuclear layer of a cross-section of the retina was determined to evaluate retinal damage.
Immediately before light exposure of rats, 5 μL of HTRA1-inhibiting peptide H308 having a concentration of 0.04 mg/mL or 0.2 mg/mL was intravitreally administered under anesthesia. n=4 for a normal saline administration group, and n=5 for the other groups.
The retinal protective effects of three HTRA1-inhibiting peptides prepared in Example 6 were evaluated using the rat models of retinal damage induced by light exposure, constructed in Example (5-1). The operation followed Example 5. n=6 for all groups.

[3] = tested on: ARPE-19 cells (VEGF mRNA); assay: VEGF mRNA induction test using human retinal pigment epithelial cells ARPE-19; type: cell-based; settings: 1 μM peptide co-added with H2O2 500 μM, normal human serum complement 25% and HTRA1 1 μM; 4 hours
Method: ARPE-19 cells were cultured until confluent in 12 mm Transwell with […] Pore Polyester Membrane Insert, Sterile (Corning Inc.) under conditions of 37° C. and 5% CO2 using a DMEM/F-12 medium (Wako Pure Chemical Industries, Ltd.) containing 10% fetal bovine serum (FBS) and penicillin-streptomycin (Thermo Fisher Scientific Inc.). Then, the cells were cultured in FBS-free DMEM/F-12 for 5 days. H2O2 (final concentration: 500 μM) was added to the upper and lower layers of the chamber, and normal human serum complement (Quidel Corp.) (final concentration: 25%) was added to the upper layer of the chamber. […] Four hours later, the culture supernatant was removed, and the cells were washed with PBS. Then, mRNA was extracted using SuperPrep™ Cell Lysis & RT Kit for qPCR (Toyobo Co., Ltd.) and subjected to a reverse transcription reaction. The mRNA level of VEGF was quantitatively analyzed by TaqMan Gene Expression Assays (Hs000900055_m1 and Hs02786624_g1; Thermo Fisher Scientific Inc.) using a 7900HT Fast Real-Time PCR System (Applied Biosystems, Inc.). GAPDH was used in the correction of the mRNA level.

[4] = tested on: HFD-HQ-loaded 3-year-old rabbits; assay: Protective effect on RPE cells in rabbit retinal damage model (HFD-HQ loading); type: in vivo; settings: 50 μL of 40 mg/mL intravitreally 2 months after start of HFD-HQ; evaluated at 4 months; vs normal saline fellow eye
From the text: Retinal damage models prepared using high-fat diet (HFD) and hydroquinone (HQ) are models in which oxidative stress is induced by a pro-oxidant to cause retinal damage. These models have been reported only for mice (Diego G. Espinosa-Heidmann et al., (2006) Invest Ophthalmol Vis Sci., Vol. 47 (No. 2): p. 729-737). Accordingly, 3-year-old JW rabbits were fed for 4 months with RC4 (Oriental Yeast Co., Ltd.) diet containing 1.5% (W/V) coconut oil-0.25% (W/V) cholesterol-1.5% (W/V) peanut oil-2.4% (W/V) hydroquinone (HFD-HQ) to construct rabbit retinal damage models. After euthanasia, the eyeballs were excised, and the anterior segment of the eye was removed by an external incision of about 5 mm from the corneal limbus. The vitreous body was further separated. Then, retina-choroid-sclera was fixed by dipping in 4% (W/V) paraformaldehyde fixative for 24 hours or longer. […] The stained choroid was observed under a fluorescence microscope (BZ-9000; Keyence Corp.). The area of stained retinal pigment epithelial (RPE) cells was determined to evaluate RPE cell damage.
The retinal protective effect of the HTRA1-inhibiting peptide H308 prepared in Example 1 was evaluated using the rabbit models. […]
After 4 months from the start of feeding, RPE cell hypertrophy in the model animals was evaluated. […]

HTRA1 (cat) = molecular target: T1, HTRA1 (cat) (Homo sapiens, UniProt Q92743); assay: HTRA1 (cat) inhibitory activity using peptide substrate H2-Opt (Example 3-1); type: biochemical; settings: decomposition rate of H2-Opt; borate buffer pH 8.5; peptide 1.875 to 1,000 nM
T1 construct: The protease domain (158Gly to 373Lys), which excludes the N-terminal domain and the PDZ domain; made in house; host or cells: E. coli BL21 (DE3)
Method: A substrate peptide H2-Opt (Mca-IRRVSYSFK(Dnp)K) (SEQ ID NO:66) (Peptide Institute, Inc.: SEQ ID NO: 54, FIG. 8) was dissolved at 10 mM in DMSO, diluted with an assay buffer (50 mM borate and 150 mM NaCl, pH 8.5), and used at a final concentration of 10 μM. HTRA1 (HTRA1 (cat) or HTRA1 (full)) and each HTRA1-inhibiting peptide diluted with an assay buffer were mixed at 25 μL each and reacted at 37° C. for 20 minutes. Then, 50 μL of the substrate diluted with an assay buffer was added thereto. A fluorescent signal (excitation at 328 nm/emission at 393 nm) was measured using Enspire (PerkinElmer, Inc.). The final concentration of HTRA1 was 100 nM, and the final concentration of the HTRA1-inhibiting peptide was 1.875 to 1,000 nM. PROTEOSAV® SS96F black plate (Sumitomo Bakelite Co., Ltd.) was used in the reaction and the measurement.
The substrate peptide decomposition rate of the HTRA1-inhibiting peptide at each concentration was calculated. When the decomposition rate at an inhibitor concentration of 0 nM was defined as 100%, the HTRA1 (cat) and HTRA1 (full) inhibitory activity of each HTRA1-inhibiting peptide was evaluated (FIGS. 2 and 3).

[5] = 0.2 and 1 μg/eye intravitreally, n=6

T1 sequence (Q92743 158-373): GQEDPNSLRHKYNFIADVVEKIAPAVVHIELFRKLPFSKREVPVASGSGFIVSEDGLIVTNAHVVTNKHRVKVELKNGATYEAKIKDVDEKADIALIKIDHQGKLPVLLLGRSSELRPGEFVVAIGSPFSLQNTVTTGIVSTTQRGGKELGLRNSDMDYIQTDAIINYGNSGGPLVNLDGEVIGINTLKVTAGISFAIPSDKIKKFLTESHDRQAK

B1: H308_D1G_S16A: N-terminal derivative of H308, 1Asp substituted with Gly, with S16A, SEQ ID NO: 24 (FIG. 36) (protein)
chain: GPQFGLFSKYRTPNCADHAGMACVALYEPVCGSDMSTYENECVLCMKIREGGHNIKIIRNGPCGG
migration of HUVEC induced in serum-containing medium [1]: suppressive effect on the migration of HUVEC
nucleus count in an outer nuclear layer on a cross-section of the retina [2, 5]: suppressed a decrease in nucleus count in an outer nuclear layer
expression of VEGF mRNA [3]: confirmed to suppress the expression of VEGF

B2: H308: SPINK2 mutant HTRA1-inhibiting peptide, amino acid sequence SEQ ID NO: 9 (FIG. 21) (protein)
chain: B1 chain with G1D, A16S
hypertrophy of RPE cells: average area of RPE cells [4]: exhibited a suppressive effect on the hypertrophy of RPE cells
hypertrophy of RPE cells: number of RPE cells having a cell area of 1500 μm^2 or larger [4]: exhibited a suppressive effect on the hypertrophy of RPE cells
nucleus count in an outer nuclear layer on a cross-section of the retina ([2]; 5 μL of 0.04 mg/mL or 0.2 mg/mL intravitreally immediately before light exposure, vs normal saline): effect of suppressing the decrease in nucleus count in an outer nuclear layer was confirmed

B3: H322AT_D1G_S16A: HTRA1-inhibiting peptide derivative, amino acid sequence SEQ ID NO: 29 (FIG. 41) (protein)
chain: B1 chain with D17Q, A19E, V24Y, E39A, V43T
nucleus count in an outer nuclear layer on a cross-section of the retina [2, 5]: suppressed a decrease in nucleus count in an outer nuclear layer

B4: H321AT_D1G_S16A: HTRA1-inhibiting peptide derivative, amino acid sequence SEQ ID NO: 28 (FIG. 40) (protein)
chain: B1 chain with H18F, A19D, V24Y, L26F, E39A, V43T
nucleus count in an outer nuclear layer on a cross-section of the retina [2, 5]: suppressed a decrease in nucleus count in an outer nuclear layer

HTRA1 (cat) inhibitory activity (in words) (HTRA1 (cat)): exhibited no HTRA1 inhibitory activity
B5: wild-type SPINK2: human serine protease inhibitor Kazal-type 2, 7 kDa, SEQ ID NO: 1 (FIG. 13); control (protein, listed as Homo sapiens)
chain: DPQFGLFSKYRTPNCSQYRLPGCPRHFNPVCGSDMSTYANECTLCMKIREGGHNIKIIRNGPC
